Assay results as given in patent US20230365662A1.
Values joined by “and” are separate entries in the source; they are usually repeats but may differ in a detail not shown here. Identical values can stand only once.

B1: KB001 mouse Fab FASEBA VH D58G (Fab, V domains shown)
VH: EVQLKQSGPGLVAPSQSLSITCTVSGFSLSIYSVHWVRQPPGKGLEWLGMIWGGGSSGYNSALKSRLSISKDNSKSQVFLKMNSLQTDDTAMYYCARNGNFYAMDYWGQGTSVTVSS
VL: QIVLTQSPAIMSASLGERVTMTCTASSSVSSSFLHWYQQKPGSSPQLWIYSTSNLASGVPARFSGSGSGTSYSLTISSMEAEDAATYYCHQYHHSPYIYTFGGGTKLEIK
B2: KB001 mouse Fab FASEBA VH Y59F (Fab, V domains shown)
VH: EVQLKQSGPGLVAPSQSLSITCTVSGFSLSIYSVHWVRQPPGKGLEWLGMIWGGGSSDFNSALKSRLSISKDNSKSQVFLKMNSLQTDDTAMYYCARNGNFYAMDYWGQGTSVTVSS
VL: QIVLTQSPAIMSASLGERVTMTCTASSSVSSSFLHWYQQKPGSSPQLWIYSTSNLASGVPARFSGSGSGTSYSLTISSMEAEDAATYYCHQYHHSPYIYTFGGGTKLEIK
B3: KB001 mouse Fab FASEBA VH S61W (Fab, V domains shown)
VH: EVQLKQSGPGLVAPSQSLSITCTVSGFSLSIYSVHWVRQPPGKGLEWLGMIWGGGSSDYNWALKSRLSISKDNSKSQVFLKMNSLQTDDTAMYYCARNGNFYAMDYWGQGTSVTVSS
VL: QIVLTQSPAIMSASLGERVTMTCTASSSVSSSFLHWYQQKPGSSPQLWIYSTSNLASGVPARFSGSGSGTSYSLTISSMEAEDAATYYCHQYHHSPYIYTFGGGTKLEIK
B4: KB001 mouse Fab FASEBA VH S61L (Fab, V domains shown)
VH: EVQLKQSGPGLVAPSQSLSITCTVSGFSLSIYSVHWVRQPPGKGLEWLGMIWGGGSSDYNLALKSRLSISKDNSKSQVFLKMNSLQTDDTAMYYCARNGNFYAMDYWGQGTSVTVSS
VL: QIVLTQSPAIMSASLGERVTMTCTASSSVSSSFLHWYQQKPGSSPQLWIYSTSNLASGVPARFSGSGSGTSYSLTISSMEAEDAATYYCHQYHHSPYIYTFGGGTKLEIK
B5: KB001 mouse Fab FASEBA VH S61R (Fab, V domains shown)
VH: EVQLKQSGPGLVAPSQSLSITCTVSGFSLSIYSVHWVRQPPGKGLEWLGMIWGGGSSDYNRALKSRLSISKDNSKSQVFLKMNSLQTDDTAMYYCARNGNFYAMDYWGQGTSVTVSS
VL: QIVLTQSPAIMSASLGERVTMTCTASSSVSSSFLHWYQQKPGSSPQLWIYSTSNLASGVPARFSGSGSGTSYSLTISSMEAEDAATYYCHQYHHSPYIYTFGGGTKLEIK
B6: KB001 mouse Fab FASEBA VH Y59K (Fab, V domains shown)
VH: EVQLKQSGPGLVAPSQSLSITCTVSGFSLSIYSVHWVRQPPGKGLEWLGMIWGGGSSDKNSALKSRLSISKDNSKSQVFLKMNSLQTDDTAMYYCARNGNFYAMDYWGQGTSVTVSS
VL: QIVLTQSPAIMSASLGERVTMTCTASSSVSSSFLHWYQQKPGSSPQLWIYSTSNLASGVPARFSGSGSGTSYSLTISSMEAEDAATYYCHQYHHSPYIYTFGGGTKLEIK
B7: KB001 mouse Fab FASEBA VH S61C (Fab, V domains shown)
VH: EVQLKQSGPGLVAPSQSLSITCTVSGFSLSIYSVHWVRQPPGKGLEWLGMIWGGGSSDYNCALKSRLSISKDNSKSQVFLKMNSLQTDDTAMYYCARNGNFYAMDYWGQGTSVTVSS
VL: QIVLTQSPAIMSASLGERVTMTCTASSSVSSSFLHWYQQKPGSSPQLWIYSTSNLASGVPARFSGSGSGTSYSLTISSMEAEDAATYYCHQYHHSPYIYTFGGGTKLEIK
B8: KB001 mouse Fab FASEBA VH Y59R (Fab, V domains shown)
VH: EVQLKQSGPGLVAPSQSLSITCTVSGFSLSIYSVHWVRQPPGKGLEWLGMIWGGGSSDRNSALKSRLSISKDNSKSQVFLKMNSLQTDDTAMYYCARNGNFYAMDYWGQGTSVTVSS
VL: QIVLTQSPAIMSASLGERVTMTCTASSSVSSSFLHWYQQKPGSSPQLWIYSTSNLASGVPARFSGSGSGTSYSLTISSMEAEDAATYYCHQYHHSPYIYTFGGGTKLEIK
B9: KB001 mouse Fab FASEBA VH Y59T (Fab, V domains shown)
VH: EVQLKQSGPGLVAPSQSLSITCTVSGFSLSIYSVHWVRQPPGKGLEWLGMIWGGGSSDTNSALKSRLSISKDNSKSQVFLKMNSLQTDDTAMYYCARNGNFYAMDYWGQGTSVTVSS
VL: QIVLTQSPAIMSASLGERVTMTCTASSSVSSSFLHWYQQKPGSSPQLWIYSTSNLASGVPARFSGSGSGTSYSLTISSMEAEDAATYYCHQYHHSPYIYTFGGGTKLEIK
B10: KB001 mouse Fab FASEBA VH N60P (Fab, V domains shown)
VH: EVQLKQSGPGLVAPSQSLSITCTVSGFSLSIYSVHWVRQPPGKGLEWLGMIWGGGSSDYPSALKSRLSISKDNSKSQVFLKMNSLQTDDTAMYYCARNGNFYAMDYWGQGTSVTVSS
VL: QIVLTQSPAIMSASLGERVTMTCTASSSVSSSFLHWYQQKPGSSPQLWIYSTSNLASGVPARFSGSGSGTSYSLTISSMEAEDAATYYCHQYHHSPYIYTFGGGTKLEIK
B11: KB001 mouse Fab FASEBA VH S61G (Fab, V domains shown)
VH: EVQLKQSGPGLVAPSQSLSITCTVSGFSLSIYSVHWVRQPPGKGLEWLGMIWGGGSSDYNGALKSRLSISKDNSKSQVFLKMNSLQTDDTAMYYCARNGNFYAMDYWGQGTSVTVSS
VL: QIVLTQSPAIMSASLGERVTMTCTASSSVSSSFLHWYQQKPGSSPQLWIYSTSNLASGVPARFSGSGSGTSYSLTISSMEAEDAATYYCHQYHHSPYIYTFGGGTKLEIK
B12: KB001 mouse Fab FASEBA VH S61F (Fab, V domains shown)
VH: EVQLKQSGPGLVAPSQSLSITCTVSGFSLSIYSVHWVRQPPGKGLEWLGMIWGGGSSDYNFALKSRLSISKDNSKSQVFLKMNSLQTDDTAMYYCARNGNFYAMDYWGQGTSVTVSS
VL: QIVLTQSPAIMSASLGERVTMTCTASSSVSSSFLHWYQQKPGSSPQLWIYSTSNLASGVPARFSGSGSGTSYSLTISSMEAEDAATYYCHQYHHSPYIYTFGGGTKLEIK
B13: KB001 mouse Fab FASEBA VH N60T (Fab, V domains shown)
VH: EVQLKQSGPGLVAPSQSLSITCTVSGFSLSIYSVHWVRQPPGKGLEWLGMIWGGGSSDYTSALKSRLSISKDNSKSQVFLKMNSLQTDDTAMYYCARNGNFYAMDYWGQGTSVTVSS
VL: QIVLTQSPAIMSASLGERVTMTCTASSSVSSSFLHWYQQKPGSSPQLWIYSTSNLASGVPARFSGSGSGTSYSLTISSMEAEDAATYYCHQYHHSPYIYTFGGGTKLEIK
B14: KB001 mouse Fab FASEBA VH S61K (Fab, V domains shown)
VH: EVQLKQSGPGLVAPSQSLSITCTVSGFSLSIYSVHWVRQPPGKGLEWLGMIWGGGSSDYNKALKSRLSISKDNSKSQVFLKMNSLQTDDTAMYYCARNGNFYAMDYWGQGTSVTVSS
VL: QIVLTQSPAIMSASLGERVTMTCTASSSVSSSFLHWYQQKPGSSPQLWIYSTSNLASGVPARFSGSGSGTSYSLTISSMEAEDAATYYCHQYHHSPYIYTFGGGTKLEIK
B15: KB001 mouse Fab FASEBA VH Y59M/S571 (Fab, V domains shown)
VH: EVQLKQSGPGLVAPSQSLSITCTVSGFSLSIYSVHWVRQPPGKGLEWLGMIWGGGSIDMNSALKSRLSISKDNSKSQVFLKMNSLQTDDTAMYYCARNGNFYAMDYWGQGTSVTVSS
VL: QIVLTQSPAIMSASLGERVTMTCTASSSVSSSFLHWYQQKPGSSPQLWIYSTSNLASGVPARFSGSGSGTSYSLTISSMEAEDAATYYCHQYHHSPYIYTFGGGTKLEIK
B16: KB001 mouse Fab FASEBA VH A62N (Fab, V domains shown)
VH: EVQLKQSGPGLVAPSQSLSITCTVSGFSLSIYSVHWVRQPPGKGLEWLGMIWGGGSSDYNSNLKSRLSISKDNSKSQVFLKMNSLQTDDTAMYYCARNGNFYAMDYWGQGTSVTVSS
VL: QIVLTQSPAIMSASLGERVTMTCTASSSVSSSFLHWYQQKPGSSPQLWIYSTSNLASGVPARFSGSGSGTSYSLTISSMEAEDAATYYCHQYHHSPYIYTFGGGTKLEIK
B17: KB001 mouse Fab FASEBA VH S61M (Fab, V domains shown)
VH: EVQLKQSGPGLVAPSQSLSITCTVSGFSLSIYSVHWVRQPPGKGLEWLGMIWGGGSSDYNMALKSRLSISKDNSKSQVFLKMNSLQTDDTAMYYCARNGNFYAMDYWGQGTSVTVSS
VL: QIVLTQSPAIMSASLGERVTMTCTASSSVSSSFLHWYQQKPGSSPQLWIYSTSNLASGVPARFSGSGSGTSYSLTISSMEAEDAATYYCHQYHHSPYIYTFGGGTKLEIK
B18: KB001 mouse Fab FASEBA VH S61Y (Fab, V domains shown)
VH: EVQLKQSGPGLVAPSQSLSITCTVSGFSLSIYSVHWVRQPPGKGLEWLGMIWGGGSSDYNYALKSRLSISKDNSKSQVFLKMNSLQTDDTAMYYCARNGNFYAMDYWGQGTSVTVSS
VL: QIVLTQSPAIMSASLGERVTMTCTASSSVSSSFLHWYQQKPGSSPQLWIYSTSNLASGVPARFSGSGSGTSYSLTISSMEAEDAATYYCHQYHHSPYIYTFGGGTKLEIK
B19: KB001 mouse Fab FASEBA VH N60S (Fab, V domains shown)
VH: EVQLKQSGPGLVAPSQSLSITCTVSGFSLSIYSVHWVRQPPGKGLEWLGMIWGGGSSDYSSALKSRLSISKDNSKSQVFLKMNSLQTDDTAMYYCARNGNFYAMDYWGQGTSVTVSS
VL: QIVLTQSPAIMSASLGERVTMTCTASSSVSSSFLHWYQQKPGSSPQLWIYSTSNLASGVPARFSGSGSGTSYSLTISSMEAEDAATYYCHQYHHSPYIYTFGGGTKLEIK
B20: KB001 mouse Fab FASEBA VH S61H (Fab, V domains shown)
VH: EVQLKQSGPGLVAPSQSLSITCTVSGFSLSIYSVHWVRQPPGKGLEWLGMIWGGGSSDYNHALKSRLSISKDNSKSQVFLKMNSLQTDDTAMYYCARNGNFYAMDYWGQGTSVTVSS
VL: QIVLTQSPAIMSASLGERVTMTCTASSSVSSSFLHWYQQKPGSSPQLWIYSTSNLASGVPARFSGSGSGTSYSLTISSMEAEDAATYYCHQYHHSPYIYTFGGGTKLEIK
B21: KB001 mouse Fab FASEBA VH N60Q (Fab, V domains shown)
VH: EVQLKQSGPGLVAPSQSLSITCTVSGFSLSIYSVHWVRQPPGKGLEWLGMIWGGGSSDYQSALKSRLSISKDNSKSQVFLKMNSLQTDDTAMYYCARNGNFYAMDYWGQGTSVTVSS
VL: QIVLTQSPAIMSASLGERVTMTCTASSSVSSSFLHWYQQKPGSSPQLWIYSTSNLASGVPARFSGSGSGTSYSLTISSMEAEDAATYYCHQYHHSPYIYTFGGGTKLEIK

Target: HRgpA-6H (Porphyromonas gingivalis) (UniProt P28784)
UniProt P28784, sequence (P28784 228-991 limits assumed): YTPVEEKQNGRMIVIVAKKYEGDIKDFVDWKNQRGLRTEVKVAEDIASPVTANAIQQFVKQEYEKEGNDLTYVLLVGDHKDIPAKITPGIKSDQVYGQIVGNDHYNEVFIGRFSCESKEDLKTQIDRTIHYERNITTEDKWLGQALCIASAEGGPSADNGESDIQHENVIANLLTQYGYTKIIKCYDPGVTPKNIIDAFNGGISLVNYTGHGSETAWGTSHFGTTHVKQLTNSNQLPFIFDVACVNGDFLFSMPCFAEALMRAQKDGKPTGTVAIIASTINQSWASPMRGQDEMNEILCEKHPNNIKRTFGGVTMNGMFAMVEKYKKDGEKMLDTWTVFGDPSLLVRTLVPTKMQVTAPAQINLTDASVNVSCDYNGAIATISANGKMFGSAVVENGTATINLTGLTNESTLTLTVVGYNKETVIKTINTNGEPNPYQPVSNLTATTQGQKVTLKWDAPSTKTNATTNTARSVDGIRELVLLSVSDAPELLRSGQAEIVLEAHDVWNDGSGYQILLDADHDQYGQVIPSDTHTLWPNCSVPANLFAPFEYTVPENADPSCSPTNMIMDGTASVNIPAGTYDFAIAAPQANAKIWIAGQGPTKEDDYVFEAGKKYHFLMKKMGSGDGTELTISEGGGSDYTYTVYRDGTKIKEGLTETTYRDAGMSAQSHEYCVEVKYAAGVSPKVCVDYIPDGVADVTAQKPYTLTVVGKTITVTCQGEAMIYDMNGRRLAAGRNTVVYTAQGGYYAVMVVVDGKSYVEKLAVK
Test: ELISA on coated HRgpA-6H

Binder | OD450nm | Ratio OD(Variant)/OD(WT)
B1 | 0.778 | 0.984
B2 | 0.668 | 0.845
B3 | 0.435 and 0.429 | 0.881 and 0.869
B4 | 0.448 | 0.908
B5 | 0.438 | 0.888
B6 | 0.648 | 0.819
B7 | 0.431 | 0.873
B8 | 0.633 | 0.8
B9 | 0.744 | 0.941
B10 | 0.44 and 0.428 | 0.892 and 0.867
B11 | 0.46 and 0.476 | 0.932 and 0.965
B12 | 0.432 and 0.473 | 0.875 and 0.958
B13 | 0.406 | 0.823
B14 | 0.49 | 0.993
B15 | 0.701 | 0.886
B16 | 0.721 and 0.799 | 0.825 and 0.914
B17 | 0.493 and 0.479 | 0.999 and 0.971
B18 | 0.423 | 0.857
B19 | 0.452 | 0.916
B20 | 0.469 | 0.95
B21 | 0.447 and 0.402 | 0.906 and 0.815
